Experimental data as given in publication PMC10405735 (Frontiers in Immunology, 2023).

B1: mCCL20, unlabeled (ligand, mouse, UniProt O89093 28-97, looked up)
chain: ASNYDCCLSYIQTPLPSRAIVGFTRQMADEACDINAIIFHTKKRKSVCADPKQNWVKRAVNLLSLRVKKM
notes: CCL20, mouse
B2: murine GPR182 (mGPR182), expressed from mGPR182 T2A GFP in 300.19 pre-B cells (receptor, mouse, UniProt P43142 1-398, looked up)
chain: MSVIPSPRPVSTLEPDNDFRDIHNWTELLHLFNQTFTDCHIEFNENTKHVVLFVFYLAIFVVGLVENVLVICVNCRRSGRVGMLNLYILNMAIADLGIILSLPVWMLEVMLEYTWLWGSFSCRFIHYFYLVNMYSSIFFLTCLSIDRYVTLTNTSPSWQRHQHRIRRAVCAGVWVLSAIIPLPEVVHIQLLDGSEPMCLFLAPFETYSAWALAVALSATILGFLLPFLLIAVFNILTACRLRRQRQTESRRHCLLMWAYIVVFAICWLPYQVTMLLLTLHGTHIFLHCHLVNLLYFFYEIIDCFSMLHCVANPILYNFLSPSFRGRLLSLVVRYLPKEQARAAGGRASSSSSTQHSIIITKEGSLPAAADLHTHPIRNVQASSPPPNTSPTLCNSVAS
notes: GPR182, mouse; Expressed fused via a self-cleaving T2A peptide to GFP (backbone pME-Cas9-T2A-GFP, Addgene 63155); receptor and GFP are split post-translationally; also called ACKR5 (proposed); source: 300.19 mouse pre-B cells, stably transfected, on cells
B3: hCCL19, unlabeled (ligand, human, UniProt Q99731 22-98, looked up)
chain: GTNDAEDCCLSVTQKPIPGYIVRNFHYLLIKDGCRVPAVVFTTLRGRQLCAPPDQPWVERIIQRLQRTSAKMKRRSS
notes: CCL19, human
B4: mCCL28, fluorescently labelled (ligand, mouse, UniProt Q9JIL2 17-130, looked up)
chain: FQTSEAILPMASSCCTEVSHHVSGRLLERVSSCSIQRADGDCDLAAVILHVKRRRICISPHNRTLKQWMRASEVKKNGRENVCSGKKQPSRKDRKGHTTRKHRTRGTHRHEASR
modifications: fluorescent label (AF647 or Dy649), site not stated
notes: CCL28, mouse; also called CCL28-AF647; mCCL28-AF647
B5: mCCL28, unlabeled (ligand, mouse, UniProt Q9JIL2 17-130, looked up)
chain: B4 chain
notes: CCL28, mouse
B6: mCCL19, unlabeled (ligand, mouse, UniProt O70460 26-108, looked up)
chain: GANDAEDCCLSVTQRPIPGNIVKAFRYLLNEDGCRVPAVVFTTLRGYQLCAPPDQPWVDRIIRRLKKSSAKNKGNSTRRSPVS
notes: CCL19, mouse
B7: hCXCL13, unlabeled (ligand, human, UniProt O43927 23-109, looked up)
chain: VLEVYYTSLRCRCVQESSVFIPRRFIDRIQILPRGNGCPRKEIIVWKKNKSIVCVDPQAEWIQRMMEVLRKRSSSTLPVPVFKRKIP
notes: CXCL13, human

Key:
Settings in all cases: one partner purified
[1] = biological target: B2; test: flow cytometry on cells; competition binding at 4°C: 300.19 cells expressing mGPR182 or hGPR182 with 3 nM fluorescent chemokine and increasing concentrations of its unlabeled counterpart, 45 min
hCXCL12, unlabeled = biological target: T1, hCXCL12, unlabeled (human, UniProt P48061 22-93); test: as above
T1 construct: CXCL12, human; also called X12

[2] = biological target: T2, human GPR182 (hGPR182), expressed from hGPR182 T2A GFP in 300.19 pre-B cells (human, UniProt O15218 1-404); test: as above
T2 construct: GPR182, human; Expressed fused via a self-cleaving T2A peptide to GFP (backbone pME-Cas9-T2A-GFP, Addgene 63155); split post-translationally; also called ACKR5 (proposed); source: 300.19 mouse pre-B cells, stably transfected, on cells

[3] = biological target: T2, human GPR182 (hGPR182), expressed from …; test: flow cytometry on cells; competition scavenging at 37°C: 300.19 cells expressing mGPR182 or hGPR182 with 3 nM fluorescent chemokine and increasing concentrations of its unlabeled counterpart, 45 min
[4] = biological target: B2; test: flow cytometry on cells; direct binding: 300.19 cells expressing GPR182 T2A GFP with increasing concentrations of fluorescently labelled chemokine, 45 min; temperature not stated for this experiment
[5] = biological target: B2; test: flow cytometry on cells; competition scavenging at 37°C: 300.19 cells expressing mGPR182 or hGPR182 with 3 nM fluorescent chemokine and increasing concentrations of its unlabeled counterpart, 45 min

In the case of B1, the Kd [1] is reported as 120 nM.

With B2 the Kd (hCXCL12, unlabeled) was 120 nM.

In the case of B3, the Kd [2] is reported as 55 nM and the “Kd (competition scavenging)” value [3] is reported as 75 nM.

With B4 the Kd [4] was roughly 8.5 nM.

B5 was tested, and the Kd [1] was 10 nM, the Kd [2] was 28 nM and the “Kd (competition scavenging)” value [5] was 14 nM. For the same binder, the “Kd (competition scavenging)” value [3] was 52 nM.

For B6, the Kd [1] was 180 nM and the “Kd (competition scavenging)” value [5] was 250 nM.

With B7 the Kd [1] was 20 nM, the Kd [2] was 20 nM and the “Kd (competition scavenging)” value [5] was 13 nM. The “Kd (competition scavenging)” value [3] was 9 nM.
